Data on one molecule can be found in US20020132977A1 (Harvard, published 2002).

The assay concerns the target T1, GFP-tagged p73 (human, UniProt O15350 1-636).
T1 construct: also called GFP-p73; not shown: GFP (pEGFP vector)
T1 sequence: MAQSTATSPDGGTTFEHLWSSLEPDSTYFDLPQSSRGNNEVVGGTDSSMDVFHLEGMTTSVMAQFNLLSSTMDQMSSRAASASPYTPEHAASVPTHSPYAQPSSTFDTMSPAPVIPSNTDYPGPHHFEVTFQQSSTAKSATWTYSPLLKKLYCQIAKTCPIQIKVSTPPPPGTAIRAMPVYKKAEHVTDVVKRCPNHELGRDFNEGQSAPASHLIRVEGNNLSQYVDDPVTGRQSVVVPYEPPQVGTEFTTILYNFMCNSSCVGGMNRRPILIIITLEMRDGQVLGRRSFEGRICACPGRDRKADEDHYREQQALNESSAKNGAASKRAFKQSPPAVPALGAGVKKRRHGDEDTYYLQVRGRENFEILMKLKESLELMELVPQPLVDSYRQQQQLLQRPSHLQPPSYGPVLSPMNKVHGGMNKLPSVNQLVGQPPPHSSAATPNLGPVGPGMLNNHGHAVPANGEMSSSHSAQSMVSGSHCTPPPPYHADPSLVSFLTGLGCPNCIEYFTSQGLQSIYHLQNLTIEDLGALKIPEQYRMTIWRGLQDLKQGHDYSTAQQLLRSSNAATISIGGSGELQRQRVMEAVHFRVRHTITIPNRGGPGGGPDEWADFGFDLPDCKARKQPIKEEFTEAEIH
Put plainly: anti-Flag IP, anti-GFP Western.

B1: p73β (p53aa319-364) (other)
chain: MAQSTATSPDGGTTFEHLWSSLEPDSTYFDLPQSSRGNNEVVGGTDSSMDVFHLEGMTTSVMAQFNLLSSTMDQMSSRAASASPYTPEHAASVPTHSPYAQPSSTFDTMSPAPVIPSNTDYPGPHHFEVTFQQSSTAKSATWTYSPLLKKLYCQIAKTCPIQIKVSTPPPPGTAIRAMPVYKKAEHVTDVVKRCPNHELGRDFNEGQSAPASHLIRVEGNNLSQYVDDPVTGRQSVVVPYEPPQVGTEFTTILYNFMCNSSCVGGMNRRPILIIITLEMRDGQVLGRRSFEGRICACPGRDRKADEDHYREQQALNESSAKNGAASKRAFKQSPPAVPALGAGVKKKPLDGEYFTLQIRGRERFEMFRELNEALELKDAQAGKEPGGSRAQQQQLLQRPSHLQPPSYGPVLSPMNKVHGGMNKLPSVNQLVGQPPPHSSAATPNLGPVGPGMLNNHGHAVPANGEMSSSHSAQSMVSGSHCTPPPPYHADPSLVRTWGP
notes: range 1-344;range 391-C-terminus; also called p73 chimera with OD of p53; Flag-tagged p53-p73 chimera with switched OD; not shown: Flag tag
For B1, the binding result is “no binding”.
